These results are taken from PMC4768041.

Assay in all cases: SPR
What all share (conditions): BIACORE 3000, RsmA-His6 (961 RU) on NTA chip; running buffer 10 mM Tris-HCl pH 7.5, 150 mM NaCl, 0.05% Tween (v/v), 1 mM [text truncated]; solutions degassed …
(In general: Surface plasmon resonance follows binding to a sensor surface in real time, without labels.)

The subject of data set [1] is RsmA-His6 (Pseudomonas aeruginosa).
The test system is the same in data set [2]. This is another data set of the same source.
The test system is the same in data set [3]. This is another data set of the same source.

In the case of cupA1 leader RNA, the binding signal (% lower RU than rsmZ RNA) in data set [1] is 50; in data set [2] it was 59; in data set [3], 67.
